According to publication PMC4879557, “HPTLC-aptastaining – Innovative protein detection system for high-performance thin-layer chromatography”:

How the values were obtained:
[1] = target: T1, lysozyme (hen (egg white), UniProt P00698 19-147); assay: HPTLC-aptastaining; no obvious differences to LysApt5; White wine mimicking buffer: 1.5 mM KCl, 14.5 mM K acetate, 3.5 mM Mg acetate, 1.5 mM Ca acetate, 1 mM NaH2PO4, 4 mM KH2PO4, 11.5% (v/v) ethanol, pH 3.1; room temperature; plates blocked with 0.6% Tween 20; aptamer 5 nM (silica gel, cellulose) or 0.5 nM (RP); details: protein: native; label: 5' ATTO 550
T1 sequence (P00698 19-147): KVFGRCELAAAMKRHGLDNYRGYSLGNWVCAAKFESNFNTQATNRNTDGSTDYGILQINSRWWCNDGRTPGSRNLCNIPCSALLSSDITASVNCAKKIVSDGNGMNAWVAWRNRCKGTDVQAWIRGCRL

[2] = target: T2, beta-lactoglobulin (UniProt P02754 17-178); assay: HPTLC-aptastaining; RP-18W and silica gel plates; White wine mimicking buffer: 1.5 mM KCl, 14.5 mM K acetate, 3.5 mM Mg acetate, 1.5 mM Ca acetate, 1 mM NaH2PO4, 4 mM KH2PO4, 11.5% (v/v) ethanol, pH 3.1; room temperature; plates blocked with 0.6% Tween 20; aptamer 5 nM (silica gel, cellulose) or 0.5 nM (RP); details: protein: native; chain copies: 2; label: 5' ATTO 550
T2 sequence: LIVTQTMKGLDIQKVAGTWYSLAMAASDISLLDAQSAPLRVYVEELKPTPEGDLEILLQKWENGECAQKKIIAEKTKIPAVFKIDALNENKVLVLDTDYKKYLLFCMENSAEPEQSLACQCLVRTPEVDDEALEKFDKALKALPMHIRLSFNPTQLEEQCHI

[3] = target: T1, lysozyme; assay: as above; details: protein: native; label: 5' ATTO 550

| Binder | binding result [1] | binding result [2] | binding result [3] |
| --- | --- | --- | --- |
| 5'-ATTO 550-LysApt4 (ssDNA) DNA: CATCCGTCACACCTGCTCTTGTTATTTTTTGTTGATGTAGGTTTGATGATGTATTTCCGGTGTTCGGTCCCGTATC | binds | – | – |
| 5'-ATTO 550-LysApt5 (ssDNA) DNA: CATCCGTCACACCTGCTCCCTGCTAGAATTTTTCATGATCTTGCTGTATTTCTATTATGGTGTTCGGTCCCGTATC | – | no binding | binds |
